Assays:
[1] = target: GST-pICln S193, 195, 197D (phospho-mimicking aspartate mutant) (human) (UniProt P54105); assay: SPR; Biacore T200; GST-pICln immobilised by amine coupling on CM5 chip (400 RU), SmG as analyte; multi-cycle, 20°C, 10 μl/min; 300 mM NaCl, 50 mM Tris/HCl pH 7.5, 1 mM EDTA, 1 mM EGTA; steady-state fit; n = 3
[2] = system: Sm core (heptameric ring SmB/D1/D2/D3/E/F/G) assembled from GFP-pICln immunoprecipitate, detected by Y12 supershift; assay: EMSA with Y12 supershift; conditions: S100 assembly: 50 ug extract, 2 ug tRNA, 5 mM ATP, 1 ul RNAsin in 20 ul PBS, 35 C, 45 min, native RNA gel, pH not stated, GFP-pICln IP with or without ATP and …

GST-pICln S193, 195, 197D (phospho-mimicking aspartate mutant) (human), sequence (P54105 other isoform, or with tags, fused parts or gaps mutant): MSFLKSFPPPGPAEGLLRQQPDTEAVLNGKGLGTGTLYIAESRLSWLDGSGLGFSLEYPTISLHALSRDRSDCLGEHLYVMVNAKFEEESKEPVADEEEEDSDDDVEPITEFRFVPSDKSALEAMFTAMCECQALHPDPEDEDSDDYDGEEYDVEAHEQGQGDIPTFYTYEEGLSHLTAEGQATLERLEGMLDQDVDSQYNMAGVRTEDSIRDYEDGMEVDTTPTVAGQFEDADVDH

Row | Substance | Kd [1] [µM] | binding signal (fold vs IP alone) ([2]; +ATP + ULK2, stated as no effect) | binding signal (fold vs IP alone) ([2]; +ATP + active ULK1) | binding signal (fold vs IP alone) ([2]; +ATP) | binding signal (fold (reference)) [2]
1 | SmG purified from E. coli (SPR analyte) (from UniProt P62308 1-76) (natural protein) | 84.7 | – | – | – | –
2 | U1 snRNA | – | 1.3 | 2.6 | 1.4 | 1

— paper PMC8216288
